# Experimental data: patent publication US20140134169A1, “Methods of Treating Ovarian Cancer with Dll4 Antagonists” (Regeneron Pharmaceuticals, Inc., priority 2012, published 2014)
# B1: mDII4Ab1: anti-murine Dll4 antibody with LCVR and HCVR of SEQ ID NO:122 and 123 (antibody)
# heavy: EVQLVESGGDLVKPGGSLKLSCTASGFTFSNYGMSWVRQTPDKRLGWVATISTAGSYTYYPDSVKGRFTISRDNAKNTLYLQMSSLKSEDTAMYYCARHPGVADFDYWGQGTTLTVSSAKTTAPSVYPLAPVCGDTTGSSVTLGCLVKGYFPEPVTLTWNSGSLSSGVHTFPAVLQSDLYTLSSSVTVTSSTWPSQSITCNVAHPASSTKVDKKIEPRGPTIKPCPPCKCPAPNLLGGPSVFIFPPKIKDVLMISLSPIVTCVVVDVSEDDPDVQISWFVNNVEVHTAQTQTHREDYNSTLRVVSALPIQHQDWMSGKEFKCKVNNKDLPAPIERTISKPKGSVRAPQVYVLPPPEEEMTKKQVTLTCMVTDFMPEDIYVEWTNNGKTELNYKNTEPVLDSDGSYFMYSKLRVEKKNWVERNSYSCSVVHEGLHNHHTTKSFSRTPGK
# light: DIVMTQSHKFMSISEGDRVSITCKARQDVTTSVAWYQQKPGQSPKLLIYWASTRHTGVPDRFTGSGSGTDFTLTISSVQAEDLALYYCQQHYSTPYTFGGGTKLEIKRADAAPTVSIFPPSSEQLTSGGASVVCFLNNFYPKDINVKWKIDGSERQNGVLNSWTDQDSKDSTYSMSSTLTLTKDEYERHNSYTCEATHKTSTSPIVKSFNRGEC
# Assays:
# Format in all cases: in vivo, human
# TOV-112D cells = assay: TOV-112D ovarian xenograft (subcutaneous) tumor growth inhibition; settings: SCID mice (native murine Dll4); REGN421 2.5 mg/kg or mDll4Ab1 5 mg/kg 1x/week
# Method: (§1) Ovarian tumor xenograft cells were implanted into humanized Dll4 SCID mice or vendor SCID mice (i.e., SCID mice expressing native murine Dll4). After implantation, mice were treated with REGN421 (anti-human Dll4 antibody, binds to human Dll4), mDll4Ab1 (anti-murine Dll4 antibody, binds to murine Dll4), or a human Fc domain control protein. In one study, mice were treated with VEGF-Trap, mDll4Ab1 or VEGF-Trap plus mDll4Ab1. TOV-112D cells (5×10^6) were implanted subcutaneously into the right flank of humanized Dll4 (n=4) or vendor SCID mice (n=7). Treatment with REGN421 (2.5 mg/kg, 1×/week) or mDll4Ab1 (5 mg/kg, 1×/week) vs. hFc control was initiated one week after tumor cell implantation. Animals were treated for 2 to 3 weeks. A2780 cells (2×10^6) were implanted intraperitoneally into humanized Dll4 or vendor SCID mice (n=4-5). Treatment with REGN421 (2.5 mg/kg, 1×/week) or mDll4Ab1 (5 mg/kg, 1×/week) vs. hFc control was initiated one week after tumor cell implantation. For the A2780 combination study, simultaneous treatment with mDll4Ab1 (5 mg/kg, 1×/week) and VEGF-Trap (10 mg/kg, 2×/week) was initiated one week after tumor cell implantation. A VEGF-Trap single treatment arm was included in this study. Animals bearing A2780 tumors were treated for 4-5 weeks. SKOV-3 cells (5×10^6) in matrigel were implanted subcutaneously and tumor-bearing animals (n=10) were dosed with REGN421 (2.5 mg/kg) and mDll4Ab1 (5 mg/kg) once weekly. OVCAR-3 cells (1×10^7) were implanted subcutaneously into the right flank of vendor SCID mice (n=7). Treatment with mDll4Ab1 (5 mg/kg 1×/week) vs. hFc control was initiated 66 days after tumor cell implantation. Animals were treated for a total of 5 weeks. Tumor growth inhibition (TGI) was measured as detailed above.
# A2780 cells = assay: A2780 ovarian xenograft (intraperitoneal) tumor growth inhibition; settings: SCID mice (native murine Dll4); REGN421 2.5 mg/kg 1x/week, mDll4Ab1 5 mg/kg 1x/week, VEGF-Trap 10 mg/kg 2x/week
# Method: as §1
# SKOV-3 cells = assay: SKOV-3 ovarian xenograft (subcutaneous) tumor growth inhibition; settings: SCID mice; mDll4Ab1 5 mg/kg once weekly
# Method: as §1, with “SKOV-3 cells (5×10^6) in matrigel were implanted subcutaneously and tumor-bearing animals (n=10) were dosed with REGN421 (2.5 mg/kg) and mDll4Ab1 (5 mg/kg) once weekly. OVCAR-3 cells (1×10^7) were implanted subcutaneously into the right flank of vendor SCID mice (n=7). Treatment with mDll4Ab1 (5 mg/kg 1×/week) vs. hFc control was initiated 66 days after tumor cell implantation. Animals were treated for a total of 5 weeks.” left out
# OVCAR-3 cells = assay: OVCAR-3 ovarian xenograft (subcutaneous) tumor growth inhibition; settings: SCID mice; mDll4Ab1 5 mg/kg 1x/week, 5 weeks
# Method: as §1, with “SKOV-3 cells (5×10^6) in matrigel were implanted subcutaneously and tumor-bearing animals (n=10) were dosed with REGN421 (2.5 mg/kg) and mDll4Ab1 (5 mg/kg) once weekly. OVCAR-3 cells (1×10^7) were implanted subcutaneously into the right flank of vendor SCID mice (n=7). Treatment with mDll4Ab1 (5 mg/kg 1×/week) vs. hFc control was initiated 66 days after tumor cell implantation. Animals were treated for a total of 5 weeks.” left out
# [1] = tested on: TOV-112D ovarian tumor xenografts; assay: Tumor microvascular density by CD31 staining, TOV-112D xenograft; settings: native Dll4 SCID mice
# Method: (§2) Quantitation of tumor microvascular density was evaluated immunohistochemically using CD31 staining. Native Dll4 SCID mice with TOV-112D and SKOV-3 ovarian tumor xenografts were treated with the anti-murine Dll4 antibody mDll4Ab1 or hFc (control). […] A reduction of tumor perfusion was also seen (data not shown).
# [2] = tested on: SKOV-3 ovarian tumor xenografts; assay: Tumor microvascular density by CD31 staining, SKOV-3 xenograft; settings: native Dll4 SCID mice
# Method: as §2
# [3] = tested on: TOV-112D and SKOV-3 ovarian tumor xenografts; assay: Tumor perfusion in ovarian tumor xenografts; settings: data not shown
# Method: as §2
molecule,measurement,setting,value
B1,% TGI,TOV-112D cells,74%
same,% TGI,A2780 cells,70%
same,% TGI,SKOV-3 cells,64%
same,% TGI,OVCAR-3 cells,84%
same,Increase in Vessel Area vs. hFc (%),[1],276.5%
same,"Vessel Area (%), percent vessel fraction over total tumor area",[1],5.53%
same,Increase in Vessel Area vs. hFc (%),[2],146.8%
same,"Vessel Area (%), percent vessel fraction over total tumor area",[2],4.36%
same,tumor perfusion,[3],reduction
